Patent US20240190987A1, “Engineered EpCam Binding Antibodies” (TigaTX, priority 2021, published 2024)

Experiments:
[1] = target: cyEpCAM ECD Ag0066 (cyno); test: SPR single-cycle
[2] = target: T1, huEpCAM ECD Ag0065 (human) (UniProt P16422); test: SPR single-cycle
T1 sequence: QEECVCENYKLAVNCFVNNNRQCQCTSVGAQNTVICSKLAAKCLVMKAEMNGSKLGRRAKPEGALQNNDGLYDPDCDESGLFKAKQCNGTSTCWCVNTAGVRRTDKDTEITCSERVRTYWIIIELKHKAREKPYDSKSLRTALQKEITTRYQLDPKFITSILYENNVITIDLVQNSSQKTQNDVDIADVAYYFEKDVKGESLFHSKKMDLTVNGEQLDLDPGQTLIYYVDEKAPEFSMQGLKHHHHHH

[3] = target: cyEpCAM ECD Ag0066 (cyno); test: SPR multi-cycle
[4] = target: T1, huEpCAM ECD Ag0065 (human); test: SPR multi-cycle
[5] = target: Ab0785; test: BLI +indinavir
[6] = target: Ab0787; test: BLI 1-pt +indinavir
[7] = target: Ab0223; test: BLI 3-pt +indinavir
[8] = target: Ab0223; test: BLI 5-pt +indinavir
[9] = target: Ab0223; test: BLI 5-pt +indinavir; remark: listed apart in the source
[10] = target: Ab0786; test: BLI 1-pt +indinavir
[11] = target: Ab0786; test: BLI 5-pt +indinavir
[12] = target: Ab0787; test: BLI 5-pt +indinavir
[13] = target: Ab0670; test: 5-pt kinetics

B1: Ab1019 (antibody, V domains shown)
VH: EVQLVESGGGLVQPGGSLRLSCAASGFTFSNYWMNWVRQAPGKGLEWVAQIRVKSENFATHYADSVKGRFTISRDDSKSTVYLQMNSLRAEDTAVYYCTLYDAFSWGQGTLVTVSS
VL: DIQMTQSPSSLSASVGDRVTITCSASSSVSSGNFHWYQQKPGKAPKLLIYRTSNLASGVPSRFSGSGSGTDYTLTISSLQPEDFATYYCQQWSGYPYTFGQGTKVEIK
- Kd [1]: 2 nM
- Kd [2]: 2.5 nM
- Kd [3]: 1.1 nM
- Kd [4]: 1.8 nM

B2: Ab1024 (antibody, V domains shown)
VH: EVQLVESGGGLVQPGGSLRLSCAASGFTFSNYWMNWVRQAPGKGLEWVAQIRVKSENFATHYVDSVKGRFTISRDDSKSTVYLQMNSLRAEDTAVYYCTLYDGFSWGQGTLVTVSS
VL: DIQMTQSPSSLSASVGDRVTITCSASSSVSSGNFHWYQQKPGKAPKLLIYRTSNLASGVPSRFSGSGSGTDYTLTISSLQPEDFATYYCQQWSGYPYTFGQGTKVEIK
- Kd [1]: 2 nM
- Kd [2]: 2.3 nM
- Kd [3]: 0.94 nM
- Kd [4]: 1.6 nM

B3: Ab1071 (Fab, V domains shown)
VH: EVQLVESGGGLVQPGGSLRLSCAASGFDFSSYSIHWVRQAPGKGLEWVASISPYYGSTYYADSVKGRFTISADTSKNTAYLQMNSLRAEDTAVYYCARYYEWYKYDLYAGSLGFDYWGQGTLVTVSS
VL: DIQMTQSPSSLSASVGDRVTITCRASQSVSSAVAWYQQKPGKAPKLLIYSASSLYSGVPSRFSGSRSGTDFTLTISSLQPEDFATYYCQQGGYSLITFGQGTKVEIK
- Kd [5]: 2.4 nM

B4: Ab1047 (antibody, V domains shown)
VH: EVQLVESGGGLVQPGGSLRLSCAASGFDFSSYSIHWVRQAPGKGLEWVAAISPYYGSTAYADSVKGRFTISADTSKNTAYLQMNSLRAEDTAVYYCARAYEWYKYDLYAGSLGFDYWGQGTLVTVSS
VL: DIQMTQSPSSLSASVGDRVTITCRASQSVSSAVAWYQQKPGKAPKLLIYSASSLYSGVPSRFSGSRSGTDFTLTISSLQPEDFATYYCQQGGYSLITFGQGTKVEIK
- Kd [6]: 47 nM

B5: Ab0706 (antibody, V domains shown)
VH: EVQLVESGGGLVQPGGSLRLSCAASGFDFSSYSIHWVRQAPGKGLEWVASISPYYGSTYYADSVKGRFTISADTSKNTAYLQMNSLRAEDTAVYYCARYYEWYKYSLNLGSLGFDYWGQGTLVTVSS
VL: DIQMTQSPSSLSASVGDRVTITCRASQSVSSAVAWYQQKPGKAPKLLIYSASSLYSGVPSRFSGSRSGTDFTLTISSLQPEDFATYYCQQGGYSLITFGQGTKVEIK
- Kd [7]: 89 nM

B6: Ab0637 (antibody, V domains shown)
VH: EVQLVESGGGLVQPGGSLRLSCAASGFDFSSYSIHWVRQAPGKGLEWVASISPYYGSTYYADSVKGRFTISADTSKNTAYLQMNSLRAEDTAVYYCARYYEWYKYSLYLGSLGFDYWGQGTLVTVSS
VL: DIQMTQSPSSLSASVGDRVTITCRASQSVSSAVAWYQQKPGKAPKLLIYSASSLYSGVPSRFSGSRSGTDFTLTISSLQPEDFATYYCQQGGYSLITFGQGTKVEIK
- Kd [8]: 3.7 nM
- Kd [9]: 5.9 nM
- Kd [7]: 5.4 nM

B7: Ab1044 (antibody, V domains shown)
VH: EVQLVESGGGLVQPGGSLRLSCAASGFDFSSYSIHWVRQAPGKGLEWVAAISPYYGSTYYADSVKGRFTISADTSKNTAYLQMNSLRAEDTAVYYCARYYEWYKYDLYAGSLGFDYWGQGTLVTVSS
VL: DIQMTQSPSSLSASVGDRVTITCRASQSVSSAVAWYQQKPGKAPKLLIYSASSLYSGVPSRFSGSRSGTDFTLTISSLQPEDFATYYCQQGGYSLITFGQGTKVEIK
- Kd [10]: 8.2 nM
- Kd [6]: 5.1 nM
- Kd [11]: 8.6 nM
- Kd [12]: 2.3 nM

B8: Ab0707 (antibody, V domains shown)
VH: EVQLVESGGGLVQPGGSLRLSCAASGFDFSSYSIHWVRQAPGKGLEWVASISPYYGSTYYADSVKGRFTISADTSKNTAYLQMNSLRAEDTAVYYCARYYEWYKYSLDLGSLGFDYWGQGTLVTVSS
VL: DIQMTQSPSSLSASVGDRVTITCRASQSVSSAVAWYQQKPGKAPKLLIYSASSLYSGVPSRFSGSRSGTDFTLTISSLQPEDFATYYCQQGGYSLITFGQGTKVEIK
- Kd [7]: 72 nM

B9: Ab0785 (Fab, V domains shown)
VH: QVQLVQSGAEVKKPGASVKVSCKASGYTFTSYWMHWVRQHPGQGLEWMGIIHPNSGGTSYAQKFQGRVTMTRDTSTSTVYMELSSLRSEDTAVYYCAMGDYVSRDYWGQGTLVTVSS
VL: EIVLTQSPGTLSLSPGERATLSCRASSSVSSSYLHWYQQKPGQAPRLLIYSTSSRATGIPDRFSGSGSGTDFTLTISRLEPEDFAVYYCQQYSGYQFTFGQGTKLEIK
modifications: chain 1 pos 246: the Lys of the Avi-tag is biotinylated where biotinylated-Ab0785 was captured on streptavidin sensors; written K
- Kd [13]: 29 nM

B10: Ab0788 (Fab, V domains shown)
VH: QVQLVQSGAEVKKPGASVKVSCKASGYTFTSYWMHWVRQHPGQGLEWMGIIHPNSGGTNYAQKFQGRVTMTRDTSTSTVYMELSSLRSEDTAVYYCAMGDYVSRDYWGQGTLVTVSS
VL: EIVLTQSPGTLSLSPGERATLSCRASSSVSSSYLHWYQQKPGQAPRLLIYSTSSRATGIPDRFSGSGSGTDFTLTISRLEPEDFAVYYCQQYSGYQFTFGQGTKLEIK
- Kd [13]: 86 nM
